Results from patent US20230167164A1 (IMMUNOWAKE, published 2023).
Positions count from the first letter of the chain named. Names and notes keep the numbering of the source. Each block holds one binder with its values, some of them ahead of it.

Assays:
human IL-2 receptor = target: T1, human IL-2 receptor (human, UniProt P01589 22-272; P14784 27-551; P31785 23-369); assay: cell-based or functional assay
T1 sequence (looked up) 1: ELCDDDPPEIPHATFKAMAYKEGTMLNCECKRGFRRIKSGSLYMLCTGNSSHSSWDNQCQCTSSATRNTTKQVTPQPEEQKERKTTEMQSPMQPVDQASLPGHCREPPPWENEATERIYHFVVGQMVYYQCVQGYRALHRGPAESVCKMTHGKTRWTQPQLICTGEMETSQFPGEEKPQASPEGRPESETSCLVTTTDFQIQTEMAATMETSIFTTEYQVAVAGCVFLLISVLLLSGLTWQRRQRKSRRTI
T1 sequence (looked up) 2: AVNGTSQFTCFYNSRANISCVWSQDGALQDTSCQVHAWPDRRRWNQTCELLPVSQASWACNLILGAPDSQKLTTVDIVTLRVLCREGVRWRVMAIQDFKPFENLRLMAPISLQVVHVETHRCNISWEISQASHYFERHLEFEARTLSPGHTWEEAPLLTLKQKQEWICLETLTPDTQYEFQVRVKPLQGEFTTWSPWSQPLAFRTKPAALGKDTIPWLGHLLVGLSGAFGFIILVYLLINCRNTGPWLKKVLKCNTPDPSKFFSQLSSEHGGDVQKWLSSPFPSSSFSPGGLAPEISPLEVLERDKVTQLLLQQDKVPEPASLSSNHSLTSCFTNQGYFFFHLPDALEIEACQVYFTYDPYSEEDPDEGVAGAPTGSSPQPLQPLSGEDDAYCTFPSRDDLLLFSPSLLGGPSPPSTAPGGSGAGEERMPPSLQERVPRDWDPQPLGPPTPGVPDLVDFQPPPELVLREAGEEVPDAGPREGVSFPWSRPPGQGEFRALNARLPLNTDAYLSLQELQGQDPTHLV
T1 sequence (looked up) 3: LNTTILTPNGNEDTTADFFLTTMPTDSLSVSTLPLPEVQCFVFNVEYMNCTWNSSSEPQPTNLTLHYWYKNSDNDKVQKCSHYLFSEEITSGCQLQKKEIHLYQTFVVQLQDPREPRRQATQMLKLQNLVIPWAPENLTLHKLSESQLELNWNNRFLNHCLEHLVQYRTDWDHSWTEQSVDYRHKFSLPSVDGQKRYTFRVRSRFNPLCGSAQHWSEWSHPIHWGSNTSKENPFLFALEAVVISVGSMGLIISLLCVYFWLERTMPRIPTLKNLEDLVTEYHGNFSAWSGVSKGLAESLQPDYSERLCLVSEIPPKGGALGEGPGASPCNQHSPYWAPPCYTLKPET

[1] = target: T2, human PD-1 overexpressed on HEK-Blue reporter cells (human, UniProt Q15116 25-288); assay: cell-based or functional assay
T2 sequence (Q15116 25-288): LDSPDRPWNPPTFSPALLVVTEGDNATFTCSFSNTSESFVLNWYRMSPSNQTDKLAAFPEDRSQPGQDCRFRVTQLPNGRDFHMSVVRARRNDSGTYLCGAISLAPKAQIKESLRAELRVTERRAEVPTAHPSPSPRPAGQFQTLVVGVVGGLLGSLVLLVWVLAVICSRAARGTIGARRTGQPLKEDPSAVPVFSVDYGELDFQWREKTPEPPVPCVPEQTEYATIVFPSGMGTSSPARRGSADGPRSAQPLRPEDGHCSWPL

[2] = target: human IL-12 receptor complex (human, UniProt P42701 24-662; Q99665 24-862); assay: cell-based or functional assay
Sequence of human IL-12 receptor complex (Q99665 24-862, chain 2 of 2, other chains not shown): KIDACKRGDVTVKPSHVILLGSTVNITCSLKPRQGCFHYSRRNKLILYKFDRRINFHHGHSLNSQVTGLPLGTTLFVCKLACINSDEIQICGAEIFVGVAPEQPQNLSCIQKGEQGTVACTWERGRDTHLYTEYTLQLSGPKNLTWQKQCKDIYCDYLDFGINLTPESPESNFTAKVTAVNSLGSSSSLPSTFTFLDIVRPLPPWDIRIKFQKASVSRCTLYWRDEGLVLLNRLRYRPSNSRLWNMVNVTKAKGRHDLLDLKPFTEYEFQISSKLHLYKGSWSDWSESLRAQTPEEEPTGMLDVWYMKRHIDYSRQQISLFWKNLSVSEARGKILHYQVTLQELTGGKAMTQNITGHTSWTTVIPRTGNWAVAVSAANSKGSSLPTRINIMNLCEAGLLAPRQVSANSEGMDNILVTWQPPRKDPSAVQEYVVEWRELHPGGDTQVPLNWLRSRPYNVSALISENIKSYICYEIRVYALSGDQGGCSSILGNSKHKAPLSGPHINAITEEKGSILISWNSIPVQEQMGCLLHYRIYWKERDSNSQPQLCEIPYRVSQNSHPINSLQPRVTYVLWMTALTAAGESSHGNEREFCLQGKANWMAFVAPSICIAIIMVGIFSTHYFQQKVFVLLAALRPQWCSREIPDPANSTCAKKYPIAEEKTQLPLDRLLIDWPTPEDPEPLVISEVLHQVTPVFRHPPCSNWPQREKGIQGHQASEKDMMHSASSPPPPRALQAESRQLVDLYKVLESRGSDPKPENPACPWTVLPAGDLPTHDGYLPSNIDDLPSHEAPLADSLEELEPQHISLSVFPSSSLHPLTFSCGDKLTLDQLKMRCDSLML

[3] = target: T2, human PD-1 overexpressed on HEK-Blue …; assay: cell-based or functional assay; remark: listed apart in the source
mouse PD-1 = target: T3, mouse PD-1 (mouse, UniProt Q02242 25-167, limits assumed); assay: PD-L1-Fc format, calibrated on PD-L1(wt)-Fc binding affinity
T3 construct: also called mPD-1
T3 sequence (looked up): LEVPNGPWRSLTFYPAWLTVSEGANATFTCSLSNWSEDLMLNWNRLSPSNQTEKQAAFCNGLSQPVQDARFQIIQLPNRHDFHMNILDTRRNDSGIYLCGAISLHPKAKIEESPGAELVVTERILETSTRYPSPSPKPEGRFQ

human PD-1 = target: T4, human PD-1 (human, UniProt Q15116 25-167, limits assumed); assay: as above
T4 construct: nivolumab is called an anti-human PD-1 antibody; also called hPD-1
T4 sequence (Q15116 25-167 limits assumed): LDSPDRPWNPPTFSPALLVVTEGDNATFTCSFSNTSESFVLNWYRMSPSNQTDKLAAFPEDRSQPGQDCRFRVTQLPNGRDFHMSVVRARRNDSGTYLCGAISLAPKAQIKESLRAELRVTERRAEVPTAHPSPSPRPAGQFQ

B1: IL-2(R38D/K43E/E61R)/PD-L1(mut2)-Fc (Fc fusion)
chain 1: FTVTVPKDLYVVEYGSNMTIECKFPVEKQLDLAALQVYWMMEDKNIIQFVHGEEDLKVQHSSYRQRARLLKDQLSLGNAALQITDVKLQDAGVYTCLIAYKGADYKRITVKVNAPYNKINQRILVVDPVTSEHELTCQAEGYPKAEVIWTSSDHQVLSGKTTTTNSKREEKLFNVTSTLRINTTTNEIFYCTFRRLDPEENHTAELVIPELPLAHPPNERGGGSGAPTSSSTKKTQLQLEHLLLDLQMILNGINNYKNPKLTDMLTFEFYMPKKATELKHLQCLERELKPLEEVLNLAQSKNFHLRPRDLISNINVIVLELKGSETTFMCEYADETATIVEFLNRWITFCQSIISTLTGGGGSGGGDKTHTCPPCPAPEKKGGPSVFLFPPKPKDTLMISRTPEVTCVVVDVSHEDPEVKFNWYVDGVEVHNAKTKPREEQYNSTYRVVSVLTVLHQDWLNGKEYKCKVSNKALPAPIEKTISKAKGQPREPQVYVLPPSREEMTKNQVSLLCLVKGFYPSDIAVEWESNGQPENRYMTWPPVLDSDGSFFLYSKLTVDKSRWQQGNVFSCSVMHEALHNHYTQKSLSLSPGK
chain 2: FTVTVPKDLYVVEYGSNMTIECKFPVEKQLDLAALQVYWMMEDKNIIQFVHGEEDLKVQHSSYRQRARLLKDQLSLGNAALQITDVKLQDAGVYTCLIAYKGADYKRITVKVNAPYNKINQRILVVDPVTSEHELTCQAEGYPKAEVIWTSSDHQVLSGKTTTTNSKREEKLFNVTSTLRINTTTNEIFYCTFRRLDPEENHTAELVIPELPLAHPPNERGGGGSGGGDKTHTCPPCPAPEDEGGPSVFLFPPKPKDTLMISRTPEVTCVVVDVSHEDPEVKFNWYVDGVEVHNAKTKPREEQYNSTYRVVSVLTVLHQDWLNGKEYKCKVSNKALPAPIEKTISKAKGQPREPQVYVYPPSREEMTKNQVSLTCLVKGFYPSDIAVEWESNGQPENNYKTTPPVLDEDGSFALVSKLTVDKSRWQQGNVFSCSVMHEALHNHYTQKSLSLSPGK
IL-2 signal transduction, % of rIL2, HEK-IL-2 cells (human IL-2 receptor): 16%
IL-2 signal transduction, % of rIL2, HEK-IL-2-PD-1 cells [1]: 76%

B2: IL-2(L18R/Q22E/R38D/K43E/E61R)/PD-L1(mut2)-Fc (Fc fusion)
chain 1: B1 chain 1 with L243R, Q247E
chain 2: B1 chain 2
IL-2 signal transduction, % of rIL2, HEK-IL-2 cells (human IL-2 receptor): 4%
IL-2 signal transduction, % of rIL2, HEK-IL-2-PD-1 cells [1]: 35%

B3: IL-2(R38D/K43E/E61R/Q126T)/PD-L1(mut2)-Fc (Fc fusion)
chain 1: B1 chain 1 with Q351T
chain 2: B1 chain 2
IL-2 signal transduction, % of rIL2, HEK-IL-2 cells (human IL-2 receptor): 2%
IL-2 signal transduction, % of rIL2, HEK-IL-2-PD-1 cells [1]: 20%

B4: IL-2(L18R/Q22E/R38D/K43E/E61R/Q126T)/PD-L1(mut2)-Fc (Fc fusion)
chain 1: B1 chain 1 with L243R, Q247E, Q351T
chain 2: B1 chain 2
IL-2 signal transduction, % of rIL2, HEK-IL-2 cells (human IL-2 receptor): < 0.1%
IL-2 signal transduction, % of rIL2, HEK-IL-2-PD-1 cells [1]: 5%

B5: PD-L1(mut2)-Fc/IL-12(E59A/F60A) (Fc fusion)
chain 1: FTVTVPKDLYVVEYGSNMTIECKFPVEKQLDLAALQVYWMMEDKNIIQFVHGEEDLKVQHSSYRQRARLLKDQLSLGNAALQITDVKLQDAGVYTCLIAYKGADYKRITVKVNAPYNKINQRILVVDPVTSEHELTCQAEGYPKAEVIWTSSDHQVLSGKTTTTNSKREEKLFNVTSTLRINTTTNEIFYCTFRRLDPEENHTAELVIPELPLAHPPNERGGGGSGGGDKTHTCPPCPAPEDEGGPSVFLFPPKPKDTLMISRTPEVTCVVVDVSHEDPEVKFNWYVDGVEVHNAKTKPREEQYNSTYRVVSVLTVLHQDWLNGKEYKCKVSNKALPAPIEKTISKAKGQPREPQVYVYPPSREEMTKNQVSLTCLVKGFYPSDIAVEWESNGQPENNYKTTPPVLDEDGSFALVSKLTVDKSRWQQGNVFSCSVMHEALHNHYTQKSLSLSPGKGGGGSGGGIWELKKDVYVVELDWYPDAPGEMVVLTCDTPEEDGITWTLDQSSEVLGSGKTLTIQVKAAGDAGQYTCHKGGEVLSHSLLLLHKKEDGIWSTDILKDQKEPKNKTFLRCEAKNYSGRFTCWWLTTISTDLTFSVKSSRGSSDPQGVTCGAATLSAERVRGDNKEYEYSVECQEDSACPAAEESLPIEVMVDAVHKLKYENYTSSFFIRDIIKPDPPKNLQLKPLKNSRQVEVSWEYPDTWSTPHSYFSLTFCVQVQGKSKREKKDRVFTDKTSATVICRKNASISVRAQDRYYSSSWSEWASVPCSGGGGSGGGSGGGGSRNLPVATPDPGMFPCLHHSQNLLRAVSNMLQKARQTLEFYPCTSEEIDHEDITKDKTSTVEACLPLELTKNESCLNSRETSFITNGSCLASRKTSFMMALCLSSIYEDLKMYQVEFKTMNAKLLMDPKRQIFLDQNMLAVIDELMQALNFNSETVPQKSSLEEPDFYKTKIKLCILLHAFRIRAVTIDRVMSYLNAS
chain 2: B1 chain 2 with D242K, E243K, Y359L, T374L, N398R, K400M, T402W, E408S, A413F, V415Y
IL-12 signal transduction, % of rIL-12, HEK-IL-12 cells [2]: 1%
IL-12 signal transduction, % of rIL-12, HEK-IL-12-PD-1 cells [3]: 25%

B6: PD-L1(mut2)-Fc (Fc fusion)
chain 1: B1 chain 2
chain 2: B1 chain 2 with D242K, E243K, Y359L, T374L, N398R, K400M, T402W, E408S, A413F, V415Y
notes: also called PD-L1(I54Q/E58M/R113T/M115L/S117A/G119K)
Kd (mouse PD-1): 120 nM
Kd (human PD-1): 150 nM

B7: PD-L1(mut3)-Fc (Fc fusion)
chain 1: FTVTVPKDLYVVEYGSNMTIECKFPVEKQLDLAALQVYWEMEDKNIIQFVHGEEDLKVQHSSYRQRARLLKDQLSLGNAALQITDVKLQDAGVYTCLIAYKGADYKRITVKVNAPYNKINQRILVVDPVTSEHELTCQAEGYPKAEVIWTSSDHQVLSGKTTTTNSKREEKLFNVTSTLRINTTTNEIFYCTFRRLDPEENHTAELVIPELPLAHPPNERDKTHTCPPCPAPEDEGGPSVFLFPPKPKDTLMISRTPEVTCVVVDVSHEDPEVKFNWYVDGVEVHNAKTKPREEQYNSTYRVVSVLTVLHQDWLNGKEYKCKVSNKALPAPIEKTISKAKGQPREPQVYVYPPSREEMTKNQVSLTCLVKGFYPSDIAVEWESNGQPENNYKTTPPVLDEDGSFALVSKLTVDKSRWQQGNVFSCSVMHEALHNHYTQKSLSLSPGK
chain 2: B7 chain 1 with D234K, E235K, Y351L, T366L, N390R, K392M, T394W, E400S, A405F, V407Y
notes: also called I54Q/R113T/M115L/S117A/G119K
Kd (mouse PD-1): 820 nM
Kd (human PD-1): 910 nM

Next, values leading:

Kd (mouse PD-1): 980 nM
Kd (human PD-1): 1090 nM
B8: PD-L1(mut4)-Fc (Fc fusion)
chain 1: B7 chain 1 with E40M, T95R
chain 2: FTVTVPKDLYVVEYGSNMTIECKFPVEKQLDLAALQVYWMMEDKNIIQFVHGEEDLKVQHSSYRQRARLLKDQLSLGNAALQITDVKLQDAGVYRCLIAYKGADYKRITVKVNAPYNKINQRILVVDPVTSEHELTCQAEGYPKAEVIWTSSDHQVLSGKTTTTNSKREEKLFNVTSTLRINTTTNEIFYCTFRRLDPEENHTAELVIPELPLAHPPNERDKTHTCPPCPAPEKKGGPSVFLFPPKPKDTLMISRTPEVTCVVVDVSHEDPEVKFNWYVDGVEVHNAKTKPREEQYNSTYRVVSVLTVLHQDWLNGKEYKCKVSNKALPAPIEKTISKAKGQPREPQVYVLPPSREEMTKNQVSLLCLVKGFYPSDIAVEWESNGQPENRYMTWPPVLDSDGSFFLYSKLTVDKSRWQQGNVFSCSVMHEALHNHYTQKSLSLSPGK
notes: also called I54Q/E58M/M115L/S117A/G119K

Kd (mouse PD-1): 1100 nM
Kd (human PD-1): 1200 nM
B9: PD-L1(mut5)-Fc (Fc fusion)
chain 1: B7 chain 1 with E40M, L97M
chain 2: B8 chain 2 with R95T, L97M
notes: also called I54Q/E58M/R113T/S117A/G119K

Kd (mouse PD-1): 420 nM
Kd (human PD-1): 555 nM
B10: PD-L1(mut6)-Fc (Fc fusion)
chain 1: B7 chain 1 with E40M, A99S
chain 2: B8 chain 2 with R95T, A99S
notes: also called PD-L1(I54Q/E58M/R113T/M115L/G119K)

Kd (mouse PD-1): 110 nM
Kd (human PD-1): 98 nM
B11: PD-L1(mut7)-Fc (Fc fusion)
chain 1: B7 chain 1 with E40M, K101G
chain 2: B8 chain 2 with R95T, K101G
notes: also called PD-L1(I54Q/E58M/R113T/M115L/S117A)
